From patent US20060281899A1, “Mutants of biotin binding protein” (priority 2002, published 2006)
Where two headings read alike, the source gives them in different places.

Experiments:
[1] = IAsys reversibility of binding to biotin, AVR4/5 forms; conditions: biotin cuvette
Protocol: The biotin-binding characteristics of the different avidins were studied using an IAsys optical biosensor at 20° C. […] H., Hytönen, V. P., Ahlroth, M. K., Pentikäinen, O. T., Gallagher, C., Nordlund, H. R., Ovod, V., Marttila, A. T., Porkka, E., Heino, S., Johnson, M. S., Airenne, K. J. & Kulomaa, M. S. (2002) Biochem. J. 363, 609-617).

[2] = Isoelectric focusing; assay type: physicochemical
Protocol: The heat stability of the AVRs was studied by using an SDS-PAGE-based method (Bayer, E. A., Ehrlich-Rogozinski, S. and Wilchek, M. (1996) Electrophoresis 17, 1319-1324). In this method, each protein sample was divided into two fractions one of which was kept biotin-free and the other was supplemented with an excess of biotin. The samples were then mixed with denaturing SDS-PAGE sample buffer (containing β-mercaptoethanol) and incubated at a given temperature for 20 minutes. After heat treatment, the samples were subjected to SDS-PAGE and visualised by staining with Coomassie brilliant blue. The relative proportions of tetrameric and monomeric forms of the AVR proteins (with avidin as the control) were detected. A similar assay, with β-mercaptoethanol omitted from the sample buffer, was performed to examine the presence of intersubunit disulfide-bridges. Sensitivity to proteinase K was studied both in the absence and in the presence of biotin as described (Laitinen, O. H., Airenne, K. J., Marttila, A. T., Kulik, T., Porkka, E., Bayer, E. A., Wilchek, M. and Kulomaa, M. S. (1999) FEBS Lett. 461, 52-8). The isoelectric point of each AVR was determined by isoelectric focusing as previously reported (Marttila, A. T., Airenne, K. J., Laitinen, O. H., Kulik, T., Bayer, E. A., Wilchek, M. and Kulomaa, M. S. (1998) FEBS Lett. 441, 313-317). The glycosylation patterns of the AVR proteins were studied by treating the proteins with Endo Hf and PNGase F glycosidase according to the manufacturer's instructions (New England Biolabs, Mass., USA).

[3] = system: biotinylated alkaline phosphatase; test: Microtiter plate assay, biotin-binding activity after heat treatment at 99.9° C.; assay type: physicochemical; conditions: 99.9° C. for various time periods
Protocol: Reversibility of biotin binding was measured for avidin and the mutants with an IAsys optical biosensor (Laitinen, O. H. et al., FEBS Lett 461 (1999), 52-8). Protein samples were allowed to bind to a biotin-aminosilane cuvette in PBS containing 1 M NaCl. After the equilibrium was reached, biotin-containing buffer was added and the dissociation of the proteins was monitored. The affinities of the proteins towards 2-iminobiotin were determined with an IAsys optical biosensor (Marttila, A. T. et al. FEBS Lett 441 (1998), 313-7). Biotin-binding activity of the mutants Avd-ci and Avd-ccci after heat treatment was studied with a microtiter plate assay. Protein samples, 5 μg/ml concentration in PBS, were heated for various time periods at 99.9° C. and then chilled on ice. The samples were transferred to a Nunc Maxisorp-plate and incubated at 37° C. for 2 h. The wells were washed three times with PBS-Tween (0.05% v/v). […] The absorbances at 405 nm were measured after incubation for 45 minutes.
Biotin-binding activity of the proteins after heat treatment was studied with a microtiter plate assay (Nordlund, H. R., Laitinen, O. H., Uotila, S. T., Nyholm, T., Hytönen, V. P., Slotte, J. P. & Kulomaa, M. S. (2003) J. Biol. Chem. 278, 2479-2483). […] The absorbencies at 405 nm were measured after incubation for 45 minutes.

[4] = IAsys optical biosensor, AVR4/5 forms binding to 2-iminobiotin surface; conditions: for Kd: 20° C.
Protocol: The biotin-binding characteristics of the different avidins were studied using an IAsys optical biosensor at 20° C. The reversibility of binding and binding affinities to the 2-iminobiotin surface in 50 mM borate buffer (pH 9.5, 1 M NaCl) were measured as previously reported (Laitinen, O. H., Hytönen, V. P., Ahlroth, M. K., Pentikäinen, O. T., Gallagher, C., Nordlund, H. R., Ovod, V., Marttila, A. T., Porkka, E., Heino, S., Johnson, M. S., Airenne, K. J. & Kulomaa, M. S. (2002) Biochem. J. 363, 609-617).
Briefly, The 2-iminobiotin ligand was immobilized onto the carboxymethyldextran surface of a cuvette using N-hydroxysuccinimide activation. Binding of various concentrations of avidin or avidin mutants onto 2-iminobiotinylated surface were measured in a 50 mM borate buffer (pH 9.5) containing 1 M NaCl at 20° C. The iminobiotin cuvettes were regenerated with 20 mM HCl. The kinetic rate constants for association (kass) and dissociation (kdiss) were calculated using the Fast Fit program package (Affinity Sensors). The obtained rate constants were used to calculate Kd(rel) according to Kd=kdiss/kass. Equilibrium data obtained from measurements with different protein concentrations were used to calculate the dissociation constant Kd(eq).

B1: AVR4/5: Recombinant chicken avidin-related protein 4/5 (AVR4 and AVR5 identical in coding sequence) (protein, UniProt P56734 25-150, looked up)
Avidin-related protein 4/5: ARKCSLTGKWTNNLGSIMTIRAVNSRGEFTGTYLTAVADNPGNITLSPLLGIQHKRASQPTFGFTVHWNFSESTTVFTGQCFIDRNGKEVLKTMWLLRSSVNDISYDWKATRVGYNNFTRLCTVEE
Reversibility of binding to biotin [1]: 5 ± 3%
pI by isoelectric focusing [2]: ≈ 10
biotin-binding activity after heat treatment [3]: superior stability against boiling
kass [4]: (7.0 ± 2.1) × 10^3 M^−1s^−1
kdiss [4]: (1.6 ± 1.4) × 10^−3 s^−1
Kd ([4]; 50 mM borate pH 9.5, 1 M NaCl, read-out: Kd detected from the equilibrium response data): 160 nM
Kd ([4]; pH 9.5, 1 M NaCl, read-out: Kd detected directly from the binding curves): 230 nM
